This is an account of results in patent publication US20210380707A1 (published 2021).

Residue numbers refer to the chain shown, from its start.

Test [1] concerns the target T1, human CD70 (human, UniProt P32970 1-193).
T1 construct: Endogenous CD70 in FFPE cells and tissue sections, detected by IHC; also called CD70 antigen
T1 sequence: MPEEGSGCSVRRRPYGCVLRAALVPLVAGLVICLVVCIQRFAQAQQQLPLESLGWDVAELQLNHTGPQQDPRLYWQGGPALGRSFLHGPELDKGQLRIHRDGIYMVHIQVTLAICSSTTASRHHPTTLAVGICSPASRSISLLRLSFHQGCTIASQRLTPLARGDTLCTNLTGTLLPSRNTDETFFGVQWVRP
Description: IHC Leica BOND, ER2, FFPE ACHN cells, 5 µg/mL. On the procedure: (§1) The following IHC evaluation was performed using a Leica BOND™ RX autostainer and BOND™ Polymer Refine Detection kit. These antibodies were tested at 5 μg/mL or 8 μg/mL concentration on a panel of CD70 positive cell line controls and a renal clear cell carcinoma tissue microarray (RCC TMA). All incubation steps were performed at room temperature with wash cycles in between each step unless otherwise stated. Briefly, pretreatment of FFPE slides was performed using the Bake and Dewax function. It was followed by a HIER step with Epitope Retrieval solution 2 (ER2) for 20 minutes at 100° C. Next, tissues were incubated with primary antibody for 60 minutes, followed by incubation with post primary and then polymer reagents for 15 minutes each. The antibody-antigen binding was visualized by brown DAB Refine stain for 10 minutes and counter-stained blue with Hematoxylin for 5 minutes. […] Upon completion of IHC staining experiment, stained tissues were scan using a Pannoramic MIDI II brightfield whole slide scanner and staining was visualized using CaseViewer software.

The target in test [2] is T1, human CD70. Description: IHC Leica BOND, ER2, FFPE ACHN cells, 8 µg/mL. The protocol:
as §1

In test [3] the target is T1, human CD70. Briefly: IHC Leica BOND, ER2, FFPE HH cells, 5 µg/mL. The protocol: as §1

B1: 4E6G9 (antibody, V domains shown)
VH: QIQLVQSGPELKKAGETVKISCKASGYTFAAYSMHWVKQAPGKGLKWMGWINTETGEPTYADDFKGRFAFSLETSASTAYLQINNLKNEDTATYFCTRDDYDGGRFSYWYFAVWGAGTTVTVSS
VL: DIQMTQSPSSLSASLGGKVTITCKASQDINKYIAWYQHRPGKGPRLLIRYTSTLQPGIPSRFSGSGSGRDYSFSINNLEPEDIATYYCLQYDNLLTFGGGTKLEIK
notes: Mouse IgG1, Kappa; Only variable domains are printed; also called 4E6G9 antibody (Ms IgG1, kappa); recombinant antibody 4E6G9
With B1, in the test with human CD70 [1], the binding result is listed as “binds”.

B2: 18F8A8 (antibody, IgG1, V domains shown)
VH: QVTLKESGPGILQPSQTLSLTCSFSGFSLSTSNMGVAWIRQPLGKGLEWLLYILWNDTKYYNPALKSRLSISKDTYNNQVFLKIVNVDTADTATYYCARIRRDYALDYWGQGTSVTVSS
VL: DIVMSQSPSSLAVSVGEKVTMNCKSSQSLLYSNNQKNYLAWYQQKPGQSPKLLIYWASTRESGVPDRFTGSGSGTDFTLTISSVKAEDLAVYYCQQYYIYPLAFGGGTKLEIK
notes: Mouse hybridoma antibody, IgG1, Kappa; Only variable domains are printed
B2: in the test with human CD70 [1], the binding result is listed as “binds”.

B3: 19H7E4 (antibody, IgG1, V domains shown)
VH: QVTLKESGPGILQPSQTLSLTCSFSGFSLSTSNVGVGWIRQPSGKGLEWLLHILWNDGKYYNPALKSRLTISKDTSTNQVFLKIADVDTADSATYYCARLRRDYGMDYWGQGTSVTVSS
VL: B2 VL with N22S, N33Y, I99T, L102Y
notes: as for B2
For B3, the binding result with human CD70 [1] is on record as “binds”.

B4: 16D7C8 (antibody, IgG3, V domains shown)
VH: QVQLQQSGPELVKPGASVRISCKASGYTFTSFYIHWVKQRPGQGLEWIGWISPINININYNEKFKGKATLTADKSSSTVYMQLSSLTSEDSAVYFCEGTSENFDVWGAGTTVTVSS
VL: DVLMTQIPLSLPVSLGDQASISCRSTQNIVHSNGNTYLEWYLQKPGQSPKLLIYKVSNRFSGVPDRFRGSGSGTEFTLKITRVEADDLGVYYCFQGSHVPFTFGAGTKLELK
notes: Mouse hybridoma antibody, IgG3, Kappa; Only variable domains are printed
As for B4, the binding result in the test with human CD70 [1] was “binds”.

B5: 11G12B6 (antibody, V domains shown)
VH: QVTLKESGPGILKPSQTLSLTCSFSGFSLSTSGLAVGWIRQPSGKGLEWLSHIWWNDDKYYNPSLKNQLTISKDTSRNQVFLKIISVDTADTATYYCSAYFGGKNYWGQGTALTVSS
VL: DIVMTQSPSSLTVTAGEKVTMSCKSSQSLLNSGNQKNYLTWYQQKPGQPPKLLVYWASTRESGVPDRFTGSGSGTDFTLTISTVQAEDLAVYYCQNDYSYPLTFGAGTKLELK
notes: as for B2
As for B5, in the test with human CD70 [2], the binding result was “binds”.

B6: 3H11D12E7 (antibody, V domains shown)
VH: QIQLVQSGPELKKPGETVKISCKASGYTFTDYSMHWVKQAPGKGLKWMGWINTETGEPTYADDFKGRFAFSLETSASTAYLQINNLKNDDTATYFCARSFYRYDWYFDVWGAGTTVTVSS
VL: QIVLTQSPAIMSASPGEKVTITCSASSSVSFMHWFQQKPGTSPKLWIYSTSNLASGVPARFSGSGSGTSYSLTISRMEAEDAATYYCQQRTSFPPTFGGGTNLEIK
notes: Mouse IgG1, Kappa; Only variable domains are printed; also called recombinantly expressed 3H11D12E7
For B6, the binding result with human CD70 [3] is recorded as “binds”.
